Laboratory results taken from US20240043504A1 (published 2024).
Substitutions are numbered along the chain they refer to. Where two headings read alike, the source gives them in different places.

Columns and labels:
Test in all cases: Luminex bead binding, supernatant
[1] = target: T1, MERS-CoV (NCoV/Novel coronavirus) Spike Protein (ECD, aa 1-1297, His Tag) (Sino 40069-[change]) (MERS-CoV, UniProt K9N5Q8 18-1297)
T1 sequence: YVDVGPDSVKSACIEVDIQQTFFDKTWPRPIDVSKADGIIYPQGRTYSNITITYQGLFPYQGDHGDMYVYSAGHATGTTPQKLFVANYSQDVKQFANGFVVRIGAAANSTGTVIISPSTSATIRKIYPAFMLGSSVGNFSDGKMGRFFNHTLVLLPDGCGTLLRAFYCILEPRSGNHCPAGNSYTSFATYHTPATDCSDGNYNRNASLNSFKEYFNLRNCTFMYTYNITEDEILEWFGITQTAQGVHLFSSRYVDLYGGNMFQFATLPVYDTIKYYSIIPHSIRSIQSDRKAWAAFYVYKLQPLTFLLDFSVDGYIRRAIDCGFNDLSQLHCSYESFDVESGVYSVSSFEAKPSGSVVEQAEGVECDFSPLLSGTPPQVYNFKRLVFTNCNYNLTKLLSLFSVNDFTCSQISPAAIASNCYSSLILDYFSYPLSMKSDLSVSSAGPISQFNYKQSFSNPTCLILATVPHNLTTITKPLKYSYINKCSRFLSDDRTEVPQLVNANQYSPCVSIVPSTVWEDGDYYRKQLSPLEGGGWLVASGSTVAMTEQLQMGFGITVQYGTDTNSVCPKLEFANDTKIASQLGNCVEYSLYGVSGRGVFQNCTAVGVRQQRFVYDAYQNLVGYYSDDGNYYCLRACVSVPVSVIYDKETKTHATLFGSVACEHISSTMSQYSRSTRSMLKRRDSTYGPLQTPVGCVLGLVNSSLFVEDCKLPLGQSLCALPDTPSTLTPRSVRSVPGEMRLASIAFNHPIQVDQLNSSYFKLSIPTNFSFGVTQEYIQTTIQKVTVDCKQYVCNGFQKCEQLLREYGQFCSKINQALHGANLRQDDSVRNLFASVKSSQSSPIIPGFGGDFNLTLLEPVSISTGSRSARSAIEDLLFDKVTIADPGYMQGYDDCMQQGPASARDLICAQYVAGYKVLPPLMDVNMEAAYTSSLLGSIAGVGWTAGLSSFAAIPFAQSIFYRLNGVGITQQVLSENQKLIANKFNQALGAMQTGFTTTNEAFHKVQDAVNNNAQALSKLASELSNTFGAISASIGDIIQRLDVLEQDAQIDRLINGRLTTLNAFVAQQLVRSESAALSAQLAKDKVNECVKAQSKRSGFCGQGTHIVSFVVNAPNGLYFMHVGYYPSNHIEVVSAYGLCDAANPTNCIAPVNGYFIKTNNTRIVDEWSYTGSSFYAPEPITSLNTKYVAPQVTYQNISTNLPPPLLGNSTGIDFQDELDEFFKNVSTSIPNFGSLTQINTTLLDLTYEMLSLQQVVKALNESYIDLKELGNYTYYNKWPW

[2] = target: T2, MERS-CoV (NCoV/Novel coronavirus) Spike Protein S2 (aa 726-1296, His Tag) (Sino 40070-[change]) (MERS-CoV, UniProt K9N5Q8 726-1296)
T2 sequence: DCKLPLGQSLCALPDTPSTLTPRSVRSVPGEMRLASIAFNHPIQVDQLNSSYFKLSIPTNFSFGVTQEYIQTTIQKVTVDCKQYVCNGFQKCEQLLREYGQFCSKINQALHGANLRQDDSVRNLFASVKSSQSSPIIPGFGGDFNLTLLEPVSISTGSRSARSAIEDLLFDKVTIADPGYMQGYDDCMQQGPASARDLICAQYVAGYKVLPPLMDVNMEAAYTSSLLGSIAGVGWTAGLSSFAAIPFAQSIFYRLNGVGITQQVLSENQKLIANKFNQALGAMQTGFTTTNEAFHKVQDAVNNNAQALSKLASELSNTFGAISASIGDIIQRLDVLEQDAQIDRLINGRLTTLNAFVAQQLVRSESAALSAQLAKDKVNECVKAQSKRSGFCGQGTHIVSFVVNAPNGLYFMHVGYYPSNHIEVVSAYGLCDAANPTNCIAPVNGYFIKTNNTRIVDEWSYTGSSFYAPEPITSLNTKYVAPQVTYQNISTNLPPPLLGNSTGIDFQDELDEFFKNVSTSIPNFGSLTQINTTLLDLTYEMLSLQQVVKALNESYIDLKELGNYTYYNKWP

[3] = target: T3, Human SARS Coronavirus Spike S1 Subunit Protein (His Tag) (Sino 40150-V08B1) (Human SARS Coronavirus, UniProt P59594 14-667)
[4] = target: T4, MERS-CoV (NCoV/Novel coronavirus) Spike Protein fragment (RBD, aa 367-606, His Tag) (Sino 40071-V08B1) (MERS-CoV, UniProt K9N5Q8 367-606)
T4 sequence: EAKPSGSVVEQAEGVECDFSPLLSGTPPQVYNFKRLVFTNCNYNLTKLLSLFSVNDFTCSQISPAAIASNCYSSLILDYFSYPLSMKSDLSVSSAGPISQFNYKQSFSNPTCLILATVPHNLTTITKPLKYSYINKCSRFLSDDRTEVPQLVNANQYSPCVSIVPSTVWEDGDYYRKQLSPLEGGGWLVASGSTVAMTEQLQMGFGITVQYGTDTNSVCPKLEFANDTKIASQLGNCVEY

[5] = target: T3, Human SARS Coronavirus Spike S1 Subunit …; remark: listed apart in the source
[6] = target: SARS-CoV-2 Spike Protein (RBD)(R319-F541).mFc (mAb10621-L1) (SARS-CoV-2)
[7] = target: SARS-CoV-2 Spike Protein (RBD)(R319-F541).hFc (mAb10622-L1) (SARS-CoV-2)
[8] = target: Bt-SARS-CoV-2 Spike Protein (RBD)(R319-F541).mFc (mAb10621-L2) (SARS-CoV-2)
[9] = target: T4, MERS-CoV (NCoV/Novel coronavirus) Spike …; remark: listed apart in the source

B1: mAb10987 (antibody, V domains shown)
VH: QVQLVESGGGVVQPGRSLRLSCAASGFTFSNYAMYWVRQAPGKGLEWVAVISYDGSNKYYADSVKGRFTISRDNSKNTLYLQMNSLRTEDTAVYYCASGSDYGDYLLVYWGQGTLVTVSS
VL: QSALTQPASVSGSPGQSITISCTGTSSDVGGYNYVSWYQQHPGKAPKLMIYDVSKRPSGVSNRFSGSKSGNTASLTISGLQSEDEADYYCNSLTSISTWVFGGGTKLTVLG
- Binding signal (MFI) [1]: 15 MFI
- Binding signal (MFI) [2]: 23 MFI

B2: mAb10969 (antibody, V domains shown)
VH: QVQLVESGGGVVQPGRSLRLSCAASGFTFSSYAMHWVRQAPGKGLEWVAVISYDGSNKYYADSVKGRFTISRDNSKNTLYLQMNSLRAEDTAVYYCARDGRTITMVRGVIDDAFDIWGQGTMVTVSS
VL: not shown
- Binding signal (MFI) [3]: 20 MFI
- Binding signal (MFI) [1]: 16 MFI
- Binding signal (MFI) [2]: 20 MFI
- Binding signal (MFI) [4]: 26 MFI

B3: mAb10970 (antibody, V domains shown)
VH: EVQLVESGGGLVQPGGSLRLSCAASGFTVSSNYMSWVRQAPGKGLEWVSVIYSGGSTYYADSVKGRFTISRDNSKNTLYLQMNRLRADDTAVYYCVRDPVGRYYYGMDVWGQGTTVTVSS
VL: not shown
- Binding signal (MFI) [1]: 14 MFI
- Binding signal (MFI) [2]: 16 MFI
- Binding signal (MFI) [4]: 23 MFI

B4: mAb10971 (antibody, V domains shown)
VH: EVQLVESGGGLIQPGGSLRLSCAASGVTVSSNYMSWVRQAPGKGLEWVSVIYSGGSTFYSDSVKGRFSISRDNSKNTLYLQMNSLRAEDTAVYYCARDLYYYGMDVWGQGTTVTVSS
VL: DIQLTQSPSFLSASVGDRVTITCRASQGISTYLAWYQQKPGKAPKLLIYAASTLQSGVPSRFSGSGSGTEFTLTISSLQPEDFATYYCQQLDSYPGLTFGGGTKVEIKR
- Binding signal (MFI) [3]: 20 MFI
- Binding signal (MFI) [1]: 15 MFI
- Binding signal (MFI) [2]: 13 MFI
- Binding signal (MFI) [4]: 20 MFI

B5: mAb10964 (antibody, V domains shown)
VH: QVQLQESGPGLVKPSETLSLTCTVSGGSINNYYWIWIRQPPGKGLEWIGYIYHSGSTNYNPSLKSRVTISVDTSKNQFSLKVSSVTAADTAVYYCANMVRGVYEDDYWGQGTLVTVSS
VL: DIQMTQSPSSLSASVGDRVTITCRASQSISNYLNWYQQKPGKAPKLLIFAASSLRSGVPSRFSGSGSGTDFTLTISSLHPEDFATYYCQQNYNTPLTFGPGTKVDIKR
- Binding signal (MFI) [3]: 5190 MFI
- Binding signal (MFI) [1]: 15 MFI
- Binding signal (MFI) [4]: 20 MFI

B6: mAb10955 (antibody, V domains shown)
VH: EVQLVESGGGLVQPGGSLRVSCAASGFTVSRNYMSWVRQAPGKGLEWVSVIYSGGSTFYADSVKGRFTISRDNSKNTLYLQMNSLRAEDTAIYYCARYIPRFDPWGQGTLVTVSS
VL: DIQMTQSPSSLSASVGDRVTITCQASQDISNYLNWFQQKPGRAPKLLIYDASNLETGVPSRFSGSGSGTDFTFTISSLQPEDIATYYCQQYDNLPITFGQGTRLEIKR
- Binding signal (MFI) [3]: 14 MFI
- Binding signal (MFI) [1]: 15 MFI
- Binding signal (MFI) [2]: 18 MFI
- Binding signal (MFI) [4]: 20 MFI

B7: mAb11010 (antibody, V domains shown)
VH: QVQLVESGGGVVQPGRSLRLSCAASGFTFSSYGMHWVRQAPGKGLEWVAVISYDGSYKYYADSVKGRFTISRDNSKNTLYLQMNSLRAEDTAVYYCAIDGGTVTTIFDYWGQGTLVTVSS
VL: not shown
- Binding signal (MFI) [5]: 7420 MFI
- Binding signal (MFI) [6]: 14400 MFI
- Binding signal (MFI) [7]: 8880 MFI
- Binding signal (MFI) [8]: 9350 MFI

B8: mAb11006 (antibody, V domains shown)
VH: EVQLVESGGGLVQPGGSLRLSCAASGFIVSRNYMSWVRQAPGKGLEWVSVIYSGGSTFYADSVKGRFTISRHNSKNTLYLQMNSLKAEDTAVYYCARELRGYFDYWGQGTLVTVSS
VL: DIQLTQSPSFLSASVGDRVTITCWASQGISSYLAWYQQKPGKAPKLLIYAASTLQSGVPSRFSGSGSGTEFTLTISSLQPEDFATYYCQLLNSYPYTFGQGTKLEIK
- Binding signal (MFI) [6]: 2870 MFI
- Binding signal (MFI) [7]: 3980 MFI
- Binding signal (MFI) [8]: 1400 MFI

B9: mAb10998 (antibody, V domains shown)
VH: EVQLVESGGGLVHPGGSLRLSCAASGLTVSSNYMSWVRQAPGKGLEWVSVIYSGGSTYYADSVKGRFTISRHNSKNTLFLQMNSLRAEDTAVYYCARDRPITGTTLDVWGQGTTVTVSS
VL: DIQMTQSPSSLFASVGDRVTITCRASQSISSYLNWYQQKPGKAPKLLIYAASSLQSGVPSRFSGSGSGTDFTLTISSLQPEDFAFYYCQQTYSTPPITFGQGTRLEIK
- Binding signal (MFI) [5]: 16 MFI
- Binding signal (MFI) [6]: 2230 MFI
- Binding signal (MFI) [7]: 1740 MFI
- Binding signal (MFI) [8]: 2230 MFI

B10: mAb11002 (antibody, V domains shown)
VH: EVQLVESGGGLVQPGGSLRLSCAASGFTVSSNYMSWVRQAPGKGLEWVSVIYSGGSTFYADSVKGRFTISRHNSKNTLYLQMNSLRAEDTAVYYCAREGYGMDVWGQGTTVTVSS
VL: not shown
- Binding signal (MFI) [5]: 31 MFI
- Binding signal (MFI) [6]: 9530 MFI
- Binding signal (MFI) [7]: 9380 MFI
- Binding signal (MFI) [8]: 2200 MFI

B11: mAb11000 (antibody, V domains shown)
VH: B4 VH with I12V, V27F, S35N, S60A, K64R, S68T, D72H, L99G, Y100S, Y101A
VL: not shown
- Binding signal (MFI) [9]: 27 MFI
